Target: human ACE2 (human) (UniProt Q9BYF1)
Test: SPR

Substance	fold increase in affinity relative to BA.2.86 RBD [fold]
BA.2.86-D450N RBD (domain or fragment)	3
BA.2.86-H445V RBD (domain or fragment)	3
BA.2.86-P486F RBD (domain or fragment)	3

Reference: article doi:10.1101/2024.01.29.577677
